Assay results from patent US20220380801A1, “TRIPARTITE SYSTEMS FOR PROTEIN DIMERIZATION AND METHODS OF USE” (priority 2019, published 2022).

Columns and labels:
BSA = BSA (Bos taurus, UniProt P02769); experiment: Biacore 8K BSA control; type: binding; set-up: key: # = no binding; * = minimal non-specific binding; settings: 10 nM simeprevir present
Experimental: The HCV NS3/4A PR (S139A), or BSA control, was diluted 1:4 (1.25-20 nM)±10 nM simeprevir in 10 mM Hepes pH 7.4, 150 mM NaCl, 0.05% Surfactant P20, 0.01% DMSO, ensuring constant simeprevir and DMSO concentration. The samples were flowed over the chip at 50 μl/min using single cycle kinetics, with 120 sec association and 600 sec dissociation. The chip surface was regenerated with two 20 sec pulses of 10 mM Glycine-HCl pH 3.0. The final sensorgrams were analysed using the Biacore 8K Evaluation Software and the affinity constant KD was determined using a 1:1 binding model. The same method was used for measuring the affinity of the HCV NS3/4A PR mutants for PRSIM_23 with minor deviations. The mutants were diluted 1:4 (2.5-40 nM)±simeprevir in 10 mM Hepes pH 7.4, 150 mM NaCl, 0.05% Surfactant P20, 0.08% DMSO, ensuring constant simeprevir and DMSO concentration. The samples were flowed over the chip at 50 μl/min using single cycle kinetics, with 180 sec association and 600 sec dissociation.

HCV NS3/4A PR (S139A) = HCV NS3/4A PR (S139A) (Hepatitis C virus subtype 1a, UniProt A8DG50, A1066T/I1043Q/I1044E/L1039E/L1040E/L1047Q/S1165A, form not given); experiment: HTRF binding screen; settings: in the presence of simeprevir
Experimental: scFv and Tn3 PRSIM binding molecules that were selective for the HCV NS3/4A PR (S139A) were identified in homogeneous time-resolved fluorescence (HTRF®) assays run in parallel to measure binding in the presence and absence of simeprevir. HCV NS3/4A PR (S139A), and serial dilutions of purified PRSIM binding molecules, were prepared in assay buffer (PBS containing 0.4 M potassium fluoride and 0.1% BSA). Streptavidin cryptate (Cisbio) was pre-mixed with either anti-FLAG XL665 (to detect the Tn3 molecules) or anti-c-myc XL665 (to detect the scFv molecules) in assay buffer. For each assay 2.5 μl of sample titration was added to 2.5 μl HCV NS3/4A PR (S139A) and 2.5 μl of pre-mixed detection reagents. Either 2.5 μl simeprevir or 2.5 μl of a DMSO blank were also added to each well. Background was defined using wells with zero sample addition. Assay plates were incubated overnight at 4° C., prior to reading the time resolved fluorescence at 620 nm and 665 nm emission wavelengths using a PerkinElmer Envision plate reader. Data was analysed by calculating % Delta F values for each sample. Delta F was determined according to equation 1.
% Delta F=((sample 665 nm/620 nm ratio value)−(background 665 nm/620 nm ratio value)/(background 665 nm/620 nm ratio value))×100 Equation 1
Selective binding molecules are defined as those scFv and Tn3 PRSIM binding molecules that bind to HCV NS3/4A PR (S139A) in complex with simeprevir and no binding to HCV NS3/4A PR (S139A).

B1: PRSIM_57: scFv specific for HCV NS3/4A PR (S139A):simeprevir complex, SEQ ID NO: 12 (protein)
scFv: QVQLVQSGAEVKKPGSSVKVSCKASGGTFSSYAISWVRQAPGQGLEWMGGIIPIFGTANYAQKFQGRVTITADESTSTAYMELSSLRSEDTAVYYCARHTNYITVFDYWGQGTLVTVSSGGGGSGGGGSGGGGSAQSVLTQPPSASGTPGQRVTISCSGSSSNIGSNTVNWYQQLPGTAPKLLIYSNNQRPSGVPDRFSGSKSGTSASLAISGLQSEDEADYYCAAWDHHWEQVVFGGGTKLTVL
modifications: PRSIM_57
Question: How did the BSA control (BSA) turn out when B1 was run?
Answer: #

Question: What about the “HTRF max. signal (% delta F)” value (HCV NS3/4A PR (S139A)) of the same molecule?
Answer: 1076 % delta F

B2: PRSIM_23: Tn3 protein specific for HCV NS3/4A PR (S139A):simeprevir complex, SEQ ID NO: 5 (protein)
chain: RLDAPSQIEVKDVTDTTALITWVDPRYDDIWWFELTYGIKDVPGDRTTIKLYLNDPYYSIGNLKPDTEYEVSLISYTGDSYSRSGSNPAKITFKTGL
modifications: PRSIM_23
Question: For B2, which BSA control (BSA) is on record?
Answer: #

Question: And the “HTRF max. signal (% delta F)” value (HCV NS3/4A PR (S139A))?
Answer: 1573 % delta F

B3: PRSIM_33: Tn3 PRSIM binding molecule, SEQ ID NO: 7 (protein)
chain: RLDAPSQIEVKDVTDTTALITWYPPGRWYDDIWYFELTYGIKDVPGDRTTIKLARGDDVYSIGNLKPDTEYEVSLISWGPDRGDRAGSNPAKITFKTGL
modifications: PRSIM_33
Question: Which results are given for B3?
Answer: BSA control (BSA): #; HTRF max. signal (% delta F) (HCV NS3/4A PR (S139A)): 1704 % delta F

B4: PRSIM_04: scFv PRSIM binding molecule, SEQ ID NO: 11 (protein)
scFv: QVQLVQSGAEVKKPGSSVKVSCKASGGTFSSYAISWVRQAPGQGLEWMGGIIPIFGTANYAQKFQGRVTITADESTSTAYMELSSLRSEDTAVYYCARGMAHFYQFDLWGQGTLVTVSSGGGGSGGGGSGGGGSAQSVLTQPPSASGTPGQRVTISCSGSSSNIGSNTVNWYQQLPGTAPKLLIYSNNQRPSGVPDRFSGSKSGTSASLAISGLQSEDEADYYCAAGDHDHEHVVFGGGTKLTVL
modifications: PRSIM_04
Question: How did the BSA control (BSA) turn out when B4 was run?
Answer: #

Question: What about the “HTRF max. signal (% delta F)” value (HCV NS3/4A PR (S139A)) of the same molecule?
Answer: 1055 % delta F

B5: PRSIM_67: scFv PRSIM binding molecule, SEQ ID NO: 13 (protein)
scFv: EVQLVQSGAEVKKPGAAVRISCKTSGYVFTSYYVHWVRQAPGQGLEWMGVINPSGGNTNYAQKFQDRVTMTRDTSTTTVYMELSSLMFDDTAVYYCAKRDYGGPLANWGRGTLVTVSSGGGGSGGGGSGGGGSALSYELTQPPSVSEAPRQRVTISCSGSSSNIGNNAVNWYQQLPGKAPKLLIFYDDLLPSGVSDRFSGSKSGTSASLAISGLQSEDEADYYCAAWDDSLNGLVFGTGTKLTVL
modifications: PRSIM_67
Question: Which BSA control (BSA) does the source give for B5 here?
Answer: #

Question: What about the “HTRF max. signal (% delta F)” value (HCV NS3/4A PR (S139A)) of the same molecule?
Answer: 1708 % delta F

B6: PRSIM_72: scFv PRSIM binding molecule, SEQ ID NO: 14 (protein)
scFv: B4 scFv
modifications: PRSIM_72
Question: Which BSA control (BSA) does the source give for B6 here?
Answer: #

Question: And the “HTRF max. signal (% delta F)” value (HCV NS3/4A PR (S139A))?
Answer: 1107 % delta F

B7: PRSIM_75: scFv PRSIM binding molecule, SEQ ID NO: 15 (protein)
scFv: EVQLVQSGAEVKKPGSSVKVSCKASGGSFNSYTLDWVRQAPGQGLEWMGGIIPVFGSPNYGQKFQGRVTITADESTSTAYMELSSLKSDDTAVYYCARGLVYQPLDSWGRGTLVTVSSGGGGSGGGGSGGGGSAQAVLTQPSSASGTPGQRVTISCSGSSSNIGSYTVNWYQQFPGTAPKLLIYSNTQRPSGVPDRFSGSKSGTSASLAISGLQSEDEADYYCAAWDDSLNGWVFGGGTKVTVL
modifications: PRSIM_75
Question: For B7, which BSA control (BSA) is on record?
Answer: #

Question: And the “HTRF max. signal (% delta F)” value (HCV NS3/4A PR (S139A))?
Answer: 1030 % delta F
